Laboratory results as given in publication doi:10.1101/2020.08.16.253419v1.

Tested on: Nc1nc2c(ncn2[C@@H]2O[C@H](COP(=O)(O)OP(=O)(O)OP(=O)(O)O)[C@@H](O)[C@H]2O)c(=O)[nH]1
Experiment: malachite green
Assay type: biochemical, Streptococcus thermophilus
Details: 20 mM Tris pH 8.0, 200 mM KCl, 5 mM MgCl2, 37 °C

StNFeoB (Streptococcus thermophilus LMG 18311; E66Q/E67Q)
Km: 187 ± 20 µM
